Measurements as given in patent US20240109974A1 (SHANDONG SIMCERE BIOPHARMACEUTICAL, published 2024).

T1: human TNFR2 on the surface of CHO-TNFR2 cells (human, UniProt P20333 23-461)
T1 construct: whole, on cells
T1 sequence (looked up): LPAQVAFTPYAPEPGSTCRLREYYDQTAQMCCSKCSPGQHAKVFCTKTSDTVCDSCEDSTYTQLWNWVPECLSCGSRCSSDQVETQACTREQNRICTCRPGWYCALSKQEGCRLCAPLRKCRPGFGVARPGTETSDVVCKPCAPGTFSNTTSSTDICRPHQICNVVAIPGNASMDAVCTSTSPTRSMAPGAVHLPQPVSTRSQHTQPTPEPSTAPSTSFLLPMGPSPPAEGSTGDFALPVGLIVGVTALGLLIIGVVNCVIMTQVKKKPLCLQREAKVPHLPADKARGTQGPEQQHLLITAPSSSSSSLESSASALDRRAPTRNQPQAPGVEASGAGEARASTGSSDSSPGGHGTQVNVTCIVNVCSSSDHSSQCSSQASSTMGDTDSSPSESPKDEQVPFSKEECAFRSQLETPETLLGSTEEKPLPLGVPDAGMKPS


Legend:
[1] = molecular target: T1, human TNFR2 on the surface of CHO-TNFR2 …; assay: flow cytometry on CHO-TNFR2 cells; EC50 against 224-WT
Procedure: The transfected full-length plasmid of human TNFR2 was purchased from Sino Biological (Cat #HG10417-UT, NCBI Ref Seq: NM_001066.2). The experiment was conducted at a cell density within 80%. The cell medium was discarded; the cells were rinsed with PBS, and digested with 1 ml trypsin for 2 minutes; the digestion was stopped with a Ham's F12 complete medium containing 10% FBS, and then a cell suspension was made. The cell suspension was counted, and then an appropriate amount of cell suspension was centrifuged at 350×g; the supernatant was discarded; a corresponding volume of blocking solution (10% FBS+PBS) at a density of 1×10⁷ cells/ml was added to resuspend the cells, and the mixture was incubated at 4° C. for 30 minutes. After the incubation, the mixture was centrifuged at 350×g to remove the supernatant, and the cells were resuspended in a staining buffer (2% FBS+PBS) to a density of 2×10⁶ cells/ml, and spread onto a 96-well plate, with 50 μl of cell suspension added to each well for later use. The antibody was diluted with PBS for 10-fold gradient dilution from the highest concentration of 20 μg/m (twice the concentration); the diluted antibody was added to the well containing 50 μl of cell suspension, and placed on a microplate shaker for shaking at 500 rpm for 1 minute, so that the antibody was fully mixed with the cells; the mixture was incubated at 4° C. for 1 h. After the incubation, the cells were washed twice with the staining buffer, with 100 μl per well, and centrifuged at 350-g for 5 minutes, and the supernatant was discarded. The PE goat anti-Human IgG Fc antibody (ebioscience, Cat #12-4998-82) was diluted 250-fold with the staining buffer, with a volume of 100 μl per well added to the washed cell wells; the mixture was mixed evenly, and stained at 4° C. for 30 minutes. After the staining, similarly, the cells were washed twice with the staining buffer; finally, the cells were resuspended in 200 μl of staining buffer; signals were detected by a flow cytometer (Thermo Attune NxT). The stronger the signal, the stronger the binding ability of an antibody to TNFR2. The binding curve of an antibody was drawn with antibody concentration as the abscissa and corresponding mean fluorescence intensity (MFI) fold as the ordinate, and fitted with four parameters (GraphPad Prism9) to calculate the EC50 value.

[2] = molecular target: T1, human TNFR2 on the surface of CHO-TNFR2 …; assay: competition flow cytometry on CHO-TNFR2 cells, competitor TNFα-biotin; IC50 against 224-WT
Procedure: CHO stable cells highly expressing human TNFR2 were used for the experiment (the same as CHO-TNFR2 in Example 4). The CHO-TNFR2 cells were digested, washed twice with DPBS, then stained with Live/Dead (L/D) (20 minutes at room temperature), and plated at a density of 1×10⁵ cells/50 μl/well. A test anti-TNFR2 antibody was diluted to 6 μg/ml with a staining buffer as the starting concentration: the antibody was subjected to 3.33-fold gradient dilution, with a total of 7 concentration points. The diluted antibody was added to the plated cells at 50 μl/well, and the mixture was mixed well by gentle pipetting, and incubated at 4° C. for 30 minutes. Then the diluted 100 ng/ml of human TNFα-biotin was added at 100 μl/well, and the mixture was mixed well by gentle pipetting, and then incubated at 4° C. for 30 minutes. The mixture was washed twice with a staining buffer, and then 0.12 μg/ml PE-streptavidin (BioLegend, Cat #405204) was added at 100 μl/well; the resulting mixture was incubated at 4° C. for 30 minutes. The mixture was washed twice with a staining buffer, and then 150 μl of staining buffer was added to resuspend the cells; signals were detected by a flow cytometer (Thermo Attune NxT). The inhibitory curve of an antibody was drawn with antibody concentration as the abscissa and corresponding MFI value as the ordinate, and fitted with four parameters (GraphPad Prism9) to calculate the IC50 value. The smaller the IC50 value, the stronger the ability of an antibody to inhibit the binding of human TNFα to human TNFR2. The blocking effect of a humanized antibody was normalized to its corresponding human-murine chimeric WT antibody. The higher the percentage value, the better the inhibitory effect of the humanized antibody.

Binder | % Relative activity (WT antibody/test antibody) [1] | % Relative activity (WT antibody/test antibody) [2]
224-Hu1 (antibody, V domains shown, Humanized form of #224; also called VH8 + VL6) VH: QVQLVQSGAEVKKPGASVKVSCKASGFNNKDIYMHWVRQAPGQGLEWIGRIDPATGNTKHDPKFQDRVTMTSDTSTNTVYMELSSLRSEDTAVYYCARSPYGDFGAMDYWGQGTLVTVSS VL: DIQMTQSPSSLSASVGDRVTITCTASSSVSSNYLHWYQQKPGKAPKLWIYSTSNLPSGVPSRFSGSGSGTDFTLTISSLQPEDFATYYCHQYHRSPWTFGQGTKVEIK | 94.5% | 108%
224-Hu7 (antibody, V domains shown, Humanized form of #224; also called VH9 + VL10) VH: QVQLVQSGSELKKPGASVKVSCKASGFNNKDIYMHWVRQAPGQGLEWMGRIDPATGNTKHDPKFQDKAVLSSDTSVSTAYLQISSLKAEDTAVYYCARSPYGDFGAMDYWGQGTLVTVSS VL: DIQMTQSPSSLSASVGDRVTITCTASSSVSSNYLHWYQQKPGKAPKLLIYSTSNLPSGVPSRFSGSGSGTDFTLTISSLQPEDFATYYCHQYHRSPWTFGQGTKVEIK | 140% | 73%
224-Hu2 (antibody, V domains shown, Humanized form of #224; also called VH9 + VL7) VH: QVQLVQSGSELKKPGASVKVSCKASGFNNKDIYMHWVRQAPGQGLEWMGRIDPATGNTKHDPKFQDKAVLSSDTSVSTAYLQISSLKAEDTAVYYCARSPYGDFGAMDYWGQGTLVTVSS VL: DIQMTQSPSSLSASVGDRVTITCTASSSVSSNYLHWYQQKPGSSPKLWIYSTSNLPSGVPSRFSGSGSGTDFTLTISSLQPEDFATYYCHQYHRSPWTFGQGTKVEIK | 119% | 124%
224-Hu3 (antibody, V domains shown, Humanized form of #224; also called VH9 + VL8) VH: QVQLVQSGSELKKPGASVKVSCKASGFNNKDIYMHWVRQAPGQGLEWMGRIDPATGNTKHDPKFQDKAVLSSDTSVSTAYLQISSLKAEDTAVYYCARSPYGDFGAMDYWGQGTLVTVSS VL: DIQMTQSPSSLSASVGDRVTITCTASSSVSSNYLHWYQQKPGKAPKLLIYSTSNLPSGVPSRFSGSGSGTDFTLTISSLQAEDAATYYCHQYHRSPWTFGQGTKVEIK | 116% | 107%
224-Hu5 (antibody, V domains shown, Humanized form of #224; also called VH9 + VL9) VH: QVQLVQSGSELKKPGASVKVSCKASGFNNKDIYMHWVRQAPGQGLEWMGRIDPATGNTKHDPKFQDKAVLSSDTSVSTAYLQISSLKAEDTAVYYCARSPYGDFGAMDYWGQGTLVTVSS VL: DIQMTQSPSSLSASVGDRVTITCTASSSVSSNYLHWYQQKPGKAPKLLIYSTSNLPSGVPSRFSGSGSGTDYSLTISSLQPEDFATYYCHQYHRSPWTFGQGTKVEIK | 112% | 95%
224-Hu6 (antibody, V domains shown, Humanized form of #224; also called VH8 + VL7) VH: QVQLVQSGAEVKKPGASVKVSCKASGFNNKDIYMHWVRQAPGQGLEWIGRIDPATGNTKHDPKFQDRVTMTSDTSTNTVYMELSSLRSEDTAVYYCARSPYGDFGAMDYWGQGTLVTVSS VL: DIQMTQSPSSLSASVGDRVTITCTASSSVSSNYLHWYQQKPGSSPKLWIYSTSNLPSGVPSRFSGSGSGTDFTLTISSLQPEDFATYYCHQYHRSPWTFGQGTKVEIK | 139% | 96%
224-Hu4 (antibody, V domains shown, Humanized form of #224; also called VH9 + VL6) VH: QVQLVQSGSELKKPGASVKVSCKASGFNNKDIYMHWVRQAPGQGLEWMGRIDPATGNTKHDPKFQDKAVLSSDTSVSTAYLQISSLKAEDTAVYYCARSPYGDFGAMDYWGQGTLVTVSS VL: DIQMTQSPSSLSASVGDRVTITCTASSSVSSNYLHWYQQKPGKAPKLWIYSTSNLPSGVPSRFSGSGSGTDFTLTISSLQPEDFATYYCHQYHRSPWTFGQGTKVEIK | 131% | 102%
